Experimental data from article PMC9482650, “Quantitative fragmentomics allow affinity mapping of interactomes” (Nature Communications, 2022).

T1: CNKSR1, Q969H4
T1 sequence (Q969H4 191-295, limits assumed, looked up): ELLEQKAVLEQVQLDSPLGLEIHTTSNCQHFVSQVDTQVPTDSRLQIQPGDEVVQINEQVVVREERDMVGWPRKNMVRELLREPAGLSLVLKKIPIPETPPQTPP

T2: RGS12, O14924
T2 sequence (O14924 17-108, limits assumed, looked up): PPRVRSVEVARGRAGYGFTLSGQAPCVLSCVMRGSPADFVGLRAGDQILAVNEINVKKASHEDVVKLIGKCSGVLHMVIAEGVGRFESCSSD

T3: LNX2_1, Q8N448
T3 sequence (Q8N448 228-328, limits assumed, looked up): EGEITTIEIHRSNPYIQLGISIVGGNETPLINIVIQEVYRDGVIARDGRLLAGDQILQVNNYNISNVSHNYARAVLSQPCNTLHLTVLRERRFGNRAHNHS


Key:
Assay in all cases: holdup assay
Design in all cases: key: below the threshold = too weak to quantify, mostly under pKd 3.1 to 4
O15021 = conditions: plain residues with an end cap or a label only (N-terminal biotin on a linker: ttds)
Q5TCQ9 = conditions: plain residues with an end cap or a label only (N-terminal biotin on a linker: ttds)
Q96HC4 = conditions: plain residues with an end cap or a label only (N-terminal biotin on a linker: ttds)
Q12923 = conditions: plain residues with an end cap or a label only (N-terminal biotin on a linker: ttds)
Q13009 = conditions: plain residues with an end cap or a label only (N-terminal biotin on a linker: ttds)
Q70Z35 = conditions: plain residues with an end cap or a label only (N-terminal biotin on a linker: ttds)
Q96SB3 = conditions: plain residues with an end cap or a label only (N-terminal biotin on a linker: ttds)
GIPC3, Q8TF64 = target: GIPC3, Q8TF64
CNKSR1, Q969H4 = target: T1, CNKSR1, Q969H4
Q9UDY2 = conditions: plain residues with an end cap or a label only (N-terminal biotin on a linker: ttds)
Q96FS4 = conditions: plain residues with an end cap or a label only (N-terminal biotin on a linker: ttds)
Q96JY6 = conditions: plain residues with an end cap or a label only (N-terminal biotin on a linker: ttds)
Q6ZWJ1 = conditions: plain residues with an end cap or a label only (N-terminal biotin on a linker: ttds)
Q9NR12 = conditions: plain residues with an end cap or a label only (N-terminal biotin on a linker: ttds)
Q9H190 = conditions: plain residues with an end cap or a label only (N-terminal biotin on a linker: ttds)
Q9NPB6 = conditions: plain residues with an end cap or a label only (N-terminal biotin on a linker: ttds)
O43166 = conditions: plain residues with an end cap or a label only (N-terminal biotin on a linker: ttds)
Q13368 = conditions: plain residues with an end cap or a label only (N-terminal biotin on a linker: ttds)
RGS12, O14924 = target: T2, RGS12, O14924
O75970 = conditions: plain residues with an end cap or a label only (N-terminal biotin on a linker: ttds)
LIMK1, P53667 = target: LIMK1, P53667
LNX2_1, Q8N448 = target: T3, LNX2_1, Q8N448
LNX1_4, Q8TBB1 = target: LNX1_4, Q8TBB1
Q8TB45 = conditions: plain residues with an end cap or a label only (N-terminal biotin on a linker: ttds)
Q8TDM6 = conditions: plain residues with an end cap or a label only (N-terminal biotin on a linker: ttds)
[1] = plain residues with an end cap or a label only (N-terminal biotin on a linker: ttds)
[2] = plain residues with an end cap or a label only (N-terminal biotin on a linker: none)

Sequence of GIPC3, Q8TF64 (Q8TF64 107-202): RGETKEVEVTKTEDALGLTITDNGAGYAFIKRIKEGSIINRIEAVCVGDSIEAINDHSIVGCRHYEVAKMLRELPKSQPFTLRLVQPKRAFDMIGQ
Sequence of LNX1_4, Q8TBB1 (Q8TBB1 631-726): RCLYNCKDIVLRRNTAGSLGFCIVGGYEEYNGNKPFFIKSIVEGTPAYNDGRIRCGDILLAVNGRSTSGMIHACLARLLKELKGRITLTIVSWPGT
Sequence of LIMK1, P53667 (P53667 155-268): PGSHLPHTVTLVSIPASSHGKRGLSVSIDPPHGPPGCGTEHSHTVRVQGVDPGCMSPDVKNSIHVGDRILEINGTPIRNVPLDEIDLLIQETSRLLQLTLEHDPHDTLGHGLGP

Binder | pKd (O15021) | pKd (Q5TCQ9) | pKd (Q96HC4) | pKd (Q12923) | pKd (Q13009) | pKd (Q70Z35) | pKd (GIPC3, Q8TF64; [1]) | pKd (CNKSR1, Q969H4; [1]) | pKd (Q9UDY2) | pKd (Q96FS4) | pKd (Q96JY6) | pKd (Q6ZWJ1) | pKd (Q9NR12) | pKd (Q9H190) | pKd (Q9NPB6) | pKd (O43166) | pKd (Q13368) | pKd (RGS12, O14924; [1]) | pKd (O75970) | pKd (LIMK1, P53667; [1]) | further results
HRTCYLVTQL [ASIC3, Q9UHC3] | below the threshold | below the threshold | below the threshold | below the threshold | below the threshold | below the threshold | below the threshold | below the threshold | below the threshold | below the threshold | below the threshold | below the threshold | below the threshold | below the threshold | below the threshold | below the threshold | below the threshold | 4.28 | below the threshold | – | pKd (Q96SB3): below the threshold
QPGTPTRTAV [MAP2K2, P36507] | below the threshold | below the threshold | below the threshold | below the threshold | below the threshold | below the threshold | below the threshold | 4.07 | below the threshold | below the threshold | below the threshold | below the threshold | below the threshold | below the threshold | below the threshold | below the threshold | below the threshold | below the threshold | below the threshold | 4.2 | pKd (Q96SB3): below the threshold
HIVEALETDV [PBK, Q96KB5] | below the threshold | below the threshold | below the threshold | below the threshold | below the threshold | below the threshold | below the threshold | below the threshold | below the threshold | below the threshold | below the threshold | below the threshold | below the threshold | below the threshold | below the threshold | below the threshold | below the threshold | below the threshold | below the threshold | 4.63 | pKd (Q96SB3): below the threshold
RRVRKLPSTTL [RPS6KA1, Q15418] | – | – | – | – | – | – | below the threshold | below the threshold | – | – | – | – | – | – | – | – | – | 3.56 | – | below the threshold | pKd (LNX2_1, Q8N448; [1]): below the threshold; pKd (LNX1_4, Q8TBB1; [1]): below the threshold
TGDTLEKFVEGL [CBP, Q92793] | – | – | – | – | – | – | – | – | – | – | – | – | – | – | – | – | – | – | – | below the threshold | pKd (LNX2_1, Q8N448; [1]): below the threshold; pKd (LNX1_4, Q8TBB1; [1]): 4.65
DEDQHTQITKV [PTEN, P60484] | – | – | – | – | – | – | – | – | – | – | – | – | – | – | – | – | – | – | – | below the threshold | pKd (LNX2_1, Q8N448; [1]): below the threshold
CLDTSRETDL [KCNA5, P22460] | below the threshold | below the threshold | below the threshold | below the threshold | below the threshold | below the threshold | below the threshold | below the threshold | below the threshold | below the threshold | below the threshold | below the threshold | below the threshold | below the threshold | below the threshold | below the threshold | below the threshold | below the threshold | below the threshold | 4.3 | pKd (Q96SB3): below the threshold
MERLRVETDV [ARHGEF16, Q5VV41] | below the threshold | below the threshold | below the threshold | below the threshold | below the threshold | below the threshold | below the threshold | 4.16 | below the threshold | below the threshold | below the threshold | below the threshold | below the threshold | below the threshold | below the threshold | below the threshold | below the threshold | below the threshold | below the threshold | below the threshold | pKd (Q96SB3): below the threshold
SEKHFRETEV [HTLV1-TAX1, P03409] | – | – | – | – | – | – | – | – | – | – | – | – | – | – | – | – | – | – | – | – | pKd (LNX2_1, Q8N448; [1]): below the threshold; pKd (LNX1_4, Q8TBB1; [1]): below the threshold
DSKPPLPPDEWV [MERS-E, K9N5R3] | – | – | – | – | – | – | – | – | – | – | – | – | – | – | – | – | – | – | – | – | pKd (LIMK1, P53667; [2]): below the threshold; pKd (GIPC3, Q8TF64; [2]): below the threshold; pKd (CNKSR1, Q969H4; [2]): below the threshold; pKd (LNX2_1, Q8N448; [2]): 4.21; pKd (LNX1_4, Q8TBB1; [2]): below the threshold; pKd (RGS12, O14924; [2]): below the threshold
RTRQRNETQV [HPV51-E6, P26554] | – | below the threshold | below the threshold | below the threshold | below the threshold | below the threshold | below the threshold | 4.44 | below the threshold | below the threshold | below the threshold | below the threshold | below the threshold | below the threshold | below the threshold | below the threshold | below the threshold | below the threshold | below the threshold | below the threshold | pKd (Q8TB45): below the threshold; pKd (Q8TDM6): below the threshold
